# Test results: the supplement of paper PMC9170038
# Tested on: K4 kissing-loop RNA reporter
# Assay: apparent KD of K4 kissing-loop reporter; higher = weaker reporter binding
# Details: Eterna round: R107
# Procedure: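 RNA-MaP round R107: designed RNA switches with theophylline, tryptophan, arginine or FMN aptamers are transcribed on-chip within common flanks. They are titrated with a labelled K4 kissing-loop RNA reporter in RNA-MaP buffer (100 mM Tris pH 7.5, 80 mM KCl, 4 mM MgCl2), without ligand or with the indicated ligand. Median apparent KD per design.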
# [1] = input ligand: theophylline 20 uM
# [2] = input ligand: tryptophan 2.4 mM
# 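Note: bound reporter read as fluorescence of individual clusters on recovered sequencing chips by microscopy, with normalized cluster intensities fitted with a binding model.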
Sequence,apparent KD of K4 kissing-loop reporter (input ligand: FMN 200 uM),apparent KD of K4 kissing-loop reporter (input ligand: arginine 13.2 mM),apparent KD of K4 kissing-loop reporter (input ligand: none),apparent KD of K4 kissing-loop reporter [1],apparent KD of K4 kissing-loop reporter [2]
UGUACCGAGUCAGGAUAUGGCGUCGAAAGACGAAUUCUAGUGAUGUUAGGGAUCUGCGAAAGCAGUCUAGAAGGGACUUGGUACU [FmnBS 26 U36+U68],356 nM,407 nM,508 nM,684 nM,512 nM
UGUAUAUGAUGUGAUACCAGUGAAGAGCCAGUGAUGUUGGUAGAACUGGUAUAUAAAUAACACCCUUGGCAGCACAAUCACGUAC [whbob_Ex_Theo_B_sa98],192 nM,188 nM,202 nM,265 nM,196 nM
UGUAUGUGAUUUGAUACCAGACCAGCUGAUGGAUCACGAGUGAUGUUCGUGUUGGUUUGGGUCCCUUGGCAGCAAAUCGCAUACU [KL-SSTheoB14],308 nM,282 nM,324 nM,248 nM,285 nM
UGUAUGUGAUUUGAUACCAGACCAGCUGGAGGAAUCUGAGUGAUGUUCAGGUAGGUUUGGGUCCCUUGGCAGCAAAUCGCAUACU [KL-SSTheoB17],251 nM,196 nM,236 nM,192 nM,209 nM
UGUAUGUGAUUUGAUACCAGACCAUCUUGUGAAUGAUGAGUGAUGUUUAUUAUGGUUUGGGUCCCUUGGCAGCAAAUCGCAUACU [KL-SSTheoB25],926 nM,717 nM,976 nM,781 nM,803 nM
UGUCAUGGAAACAUGAACGUUGAUGUUCGACGAGGACCGGUACGGCCGCCACUCGAGUAAUAGUCAGUGAUGUUGACUUGUCUAA [KL-SSTryp-A form1 sub3],74.2 nM,107 nM,91.8 nM,131 nM,76.5 nM
UGUCAUUGGUCGGCCGCCACUUCAAAAGGUCAAAGACCAGAGUGAUGUUCUUCACGAAACGUGAGAAGGACCGGGACCGAUGACU [TrypBS 12 #SwitchBubble #K4Middle],226 nM,123 nM,191 nM,266 nM,638 nM
UGUCAUUGGUCGGCCGCCACUUCAAGGUCAAAGACCAAAGAGUGAUGUUCUUAGACGAAAGUCAGAAGGACCGGGACCGAUGACU [TrypBS 9 #SwitchBubble #K4Middle],318 nM,144 nM,204 nM,245 nM,727 nM
UGUCAUUGGUCGGCCGCCACUUCAUAGAGAGUGAUGUUCUUAAAGACGGAUCGAAAGAUCUGUCGAAGGACCGGGACCGAUGACU [FiskerMod 9 - Jieux - Same State - Tryptophan B],997 nM,676 nM,1400 nM,783 nM,302 nM
UGUCAUUGGUCGGCCGCCACUUCGUGUAGAGUGAUGUUUUGUAGGACGGAUCGAAAGAUCUGUCGAAGGACCGGGACCGAUGACU [FiskerMod 18 - Jieux - Same State - Tryptophan B],500 nM,189 nM,459 nM,336 nM,1100 nM
UGUCUUCAGUGAUGUUGAUGACAACACUUAAAGGAUAUGCGAGAGAGCAGAAGGUUAAACAACGCGCAAAUCAAGGAGGGUCUAG [theeternabot_exclusion_KL_FMN_A_30],193 nM,161 nM,178 nM,196 nM,174 nM
UGUGAACAAAAGUAGAGUGGACCACUAUAGCGAGGACCGGUACGGCCGCCACUCGUGUAUGAAUUCAGUGAUGUUGAAAAGAGCU [whbob_EX_Tryp_A_t11],131 nM,187 nM,138 nM,254 nM,134 nM
UGUGCCAAAUGUGAUACCAGCUUCCUGCAGUGAUGUUGCAUACGAGUGAUGUUCGUCCGAGGCCCUUGGCAGCGCAGUCGUUUGA [Same State Theophylline B GF 27],450 nM,442 nM,528 nM,437 nM,352 nM
UGUGCCAACAGUGAUACCAGCGUGGAGUGAUGUUCCGAGGAUCGGAGUGAUGUUCCGAAGCGCCCUUGGCAGCGCAGAAGCGCGA [Exclusion Theophylline B GF 26],239 nM,156 nM,186 nM,189 nM,182 nM
UGUGUUGUUGUGAUGUUUAGUGUUGUUGGGCAGGAUAUCGUAGAGGCGAGAAGGGCUUGUGUGCUGUAUGAGUGAUGUUUGUAGG [xrrxmullin],372 nM,238 nM,428 nM,262 nM,322 nM
UGUGUUGUUUUGAUGUUUGGUGUAAGUUGGCAGGAUAUCGUAGAGGCGAGAAGGGCUUUUAUGCGUUAUGAGUGAUGUUUGUAGG [zrrzmullin],640 nM,330 nM,538 nM,404 nM,699 nM
UGUGUUGUUUUGAUGUUUGGUGUUGCUUGGCAGGAUAUCGUAGAGGCGAGAAGGGCUUGUGAGCGGUAUGAGUGAUGUUUGUAGG [zwwrmullin],485 nM,282 nM,455 nM,416 nM,336 nM
UGUUCAAGUGAUGUUUGAGACUAGGUGGAUACCAGCGCAUGCAGUCGCCCUUGGCAGCCAGAAACCAACGCCGCGCGCUUCGGCU [theeternabot_sameState_KL_Theo_A_39],342 nM,325 nM,464 nM,350 nM,334 nM
UGUUUUUACUGAAGGAGCGGCAAUUGAUACGUAGAUAUAGUGAUGUUAUAUAAGAUAGAGAGCCAGGUAGGUCGCAGAAUGAAUC [ExArgB.aD],209 nM,188 nM,190 nM,242 nM,156 nM
UGUUUUUACUGAAGGAGCGGCAAUUGAUACGUAGAUAUAGUGAUGUUAUAUAAGAUAGAGAGCCAGGUAGGUCGCAGAGUUUUUC [ExArgB.Z],167 nM,167 nM,161 nM,179 nM,154 nM
UUACCAAGUGAUGUUUGGAAAUAUCCUAGGCAGGAUAUGCGGAAACGCAGAAGGGCCACCUUAUAGUGAAGGAAACUUCGCUAUU [Ex FMN A 2],163 nM,124 nM,140 nM,141 nM,142 nM
UUACGAGUGAUGUUCGAAUAAAUCCAUUCAGAGGAUAUAGUAUUAACUAGAAGGCUGAAACCAACUUCGAGUCAUGUUCGAGGAU [Same State FMN A GF 2],271 nM,324 nM,277 nM,514 nM,269 nM

Sequence,apparent KD of K4 kissing-loop reporter (input ligand: FMN 200 uM),apparent KD of K4 kissing-loop reporter (input ligand: arginine 13.2 mM),apparent KD of K4 kissing-loop reporter (input ligand: none),apparent KD of K4 kissing-loop reporter [1],apparent KD of K4 kissing-loop reporter [2]
UUAGAGAUCUCAGGAUAUCAGUGAUGUUGGUGUAAAGAUCUGAGAUAGAAUUCUAUCUCAGAUCAAUGAGAAGGGAGAUCUCAUU [AK3.2 Exc FMN B],338 nM,179 nM,192 nM,219 nM,174 nM
UUAGAGAUCUCAGGAUAUCAGUGAUGUUGGUGUUAAGAUCUGAGAUAGAAUUCUAUCUCAGAUCAAUGAGAAGGGAGAUCUCAUU [AK3 Exc FMN B],296 nM,132 nM,167 nM,161 nM,152 nM
UUAGCUCUAUAGAGCAAGAGGUAUACUGAUACCAGAGGCUAUAGCCUCCCUUGGCAGCGGAUCGAGUGAUGUUCGUAACCUCAUU [AK4.5 SS Theophylline A],616 nM,661 nM,812 nM,724 nM,433 nM
UUAGGAGUGGGAGGAUAUCCUAAUGUGGGUGAUGUUAGUGAUGUUGAAAGUGUAGUGAUGUUGUGCGGAGAAGGUCCAGUGUUGA [BDazzled - #11 - Exc. FMN B],212 nM,133 nM,210 nM,192 nM,157 nM
UUAUAUUUUAUAUUUAGUAGAGCUCUCGCUCGAGGACCGGUACGGCCGCCACUCGAGUGAUGUUCGAGUGGGAGAGCUCUACAUU [AK3.3 EXC Tryptophan A],108 nM,99.5 nM,94.9 nM,100 nM,181 nM
UUAUCUAUAUUCGAUACCAGUACCCUGUGUGUUGAUCCUUUUAUAAGUGAUGUUUAUGAGUACCCUUGGCAGCGGGUAUGGGUUU [KL-XTheo-B17],815 nM,734 nM,883 nM,944 nM,712 nM
UUAUUAAUAACAGAUACCAGUCCAGAAUGAAAACUAUAGUGAUGUUAUAAUAAAGGGAAGGACCCUUGGCAGCUGUAAUAUAUUU [AstrosSSTheB#2],525 nM,427 nM,497 nM,452 nM,394 nM
UUCAGGUGUUCGGCCGCCACUCCAGUGAUGUUGGAGUGGCUUCACAAGGACCAGGACAAUGUAAGGAGGACCGGGAAUAUCGCAG [Leerat],143 nM,110 nM,131 nM,115 nM,125 nM
UUCGUAGUAGGAAACUAUUACGAAAAGGAAGGAGCGGCGAAGAAGCCAGGUAGGUCGCCUAUUGACAGUGAUGUUGUUAUAUAGA [#10],144 nM,239 nM,176 nM,205 nM,162 nM
UUCUGCAUCUCGGCCGCCACUCACUAGUGAUGUUAGUAAGGAGCGACUAGACAUGUCCCGUUGUUGAGGACCGGGAGAGGCUCUU [#14 K4 Tryptophan B Exclusion],156 nM,164 nM,164 nM,191 nM,170 nM
UUGGAGUGAUGUUCCAUAUCUUGAGCGGAAGGAGCGGCAAAAGUGCCAGGUAGGUCGCCGCAGAAGGUACCAGUGAUGUUGGAAA [Same State Arginine A GF 3],132 nM,152 nM,155 nM,156 nM,109 nM
UUGGCAGUGAUGUUGCCAGAGUUCACCGAAGGAGCGGGUGAAAACCCAGGUAGGUCGCGGUAGCGGAGUGAUUCUCCGCGAGGGC [Same State Arginine A GF 22],90.5 nM,91 nM,86.2 nM,93.7 nM,91.4 nM
UUGUAAAAGUCGGCCGCCACUCCGGGCCCUAUAAAUGGGCGCAGUGAUGUUGCGGCUAGGCCUCUGAGGACCGGGACUUUAUAGC [Xeismaarbe],115 nM,85.1 nM,125 nM,66.8 nM,201 nM
UUGUUUUACUGAAGGAGCGGCAAUUGAUACGUAGAUAUAGUGAUGUUAUAUAAGAUAGAGAGCCAGGUAGGUCGCAGAUUUGUUU [ExArgB.U],221 nM,193 nM,188 nM,183 nM,173 nM
UUUAAACAUAGUGAUGUUAUGUAACAAUGACGAGGACCGGUACGGCCGCCACUCGAGAGAGAUGAUGGUAAAAUAAAUAAUUUUC [#10 K4 Tryptophan A Same State],105 nM,124 nM,107 nM,113 nM,90.6 nM
UUUAACGAGUGAUGUUCGAAAAGUAAUGGUUAGGAUAUCGUUUUUUCGAGAAGGAACCUCGAAGUGAUACGAAAGUAUCGCUUCG [FMN A 2],173 nM,428 nM,264 nM,466 nM,240 nM
UUUAUUAAGACGGCCGCCACUGAUUCAUAGUGAUGUUAUGAUAUAAUUUUAGUGAUUUUGAUUAGCAGGACCGGGUCAAUUAUUA [JR_ExcTryptoB_Sub016],221 nM,179 nM,196 nM,194 nM,172 nM
UUUCGGCCCAGUGAUGUUGGGUGGAGGCGGCGAGGACCGGUACGGCCGCCACUCGGCGCACUGGCGGAGUGAUGUUUCGUGUAUA [Same State Tryptophan A GF 14],697 nM,592 nM,752 nM,708 nM,834 nM
UUUCGUUGAAGUGAUACCAGACUUGAAAGUGAUGUUUUCCAAUAAUUUAAAUUAUUAGCUGUCCCUUGGCAGCACAGUUUAUUUA [JR_ExcTheophyB_Sub007],255 nM,371 nM,327 nM,443 nM,208 nM
UUUCGUUUCGUCUGACAUAAUUGGCUAGAAGGAGCGGUAAAAUUACCAGGUAGGUCGCUAGCCCAGUGAUGUUGGGACUAGCAUA [Onqudi],148 nM,154 nM,133 nM,156 nM,171 nM
UUUGGAUUGCGCGAAGAGUGCAAGCGCCAACGAGGACCGGUACGGCCGCCACUCGCGGAGGAGUCCAGUGAUGUUGGACGGCCCG [Laraones],271 nM,276 nM,281 nM,290 nM,185 nM
